The values that follow come from US20250376536A1 (Bristol-Myers Squibb, published 2025).

The EC50 is the concentration that produces a half-maximal response. A high value points to weaker potency. Usually Kd stands for the equilibrium constant for the complex coming apart.

Assay [1] concerns the target T1, mouse CD40 on cells (mouse, UniProt P27512 20-289).
T1 construct: whole, on cells; also called Mouse CD40-positive macrophage; Mouse CD40-positive B cell
T1 sequence (looked up): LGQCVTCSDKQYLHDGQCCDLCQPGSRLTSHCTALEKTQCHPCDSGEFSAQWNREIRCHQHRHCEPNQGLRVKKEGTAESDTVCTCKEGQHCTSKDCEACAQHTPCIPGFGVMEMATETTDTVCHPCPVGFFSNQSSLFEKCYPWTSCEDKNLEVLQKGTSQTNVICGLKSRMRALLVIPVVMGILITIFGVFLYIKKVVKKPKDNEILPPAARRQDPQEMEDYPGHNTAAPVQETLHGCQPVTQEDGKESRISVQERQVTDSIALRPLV
The assay can be described thus: binding to mouse CD40-positive B cells.

The target in assay [2] is T1, mouse CD40 on cells. The assay can be described thus: binding to mouse CD40-positive macrophages.
The target in another assay is T2, mouse CD40 protein (mouse, UniProt P27512 20-193, limits assumed).
T2 sequence (looked up): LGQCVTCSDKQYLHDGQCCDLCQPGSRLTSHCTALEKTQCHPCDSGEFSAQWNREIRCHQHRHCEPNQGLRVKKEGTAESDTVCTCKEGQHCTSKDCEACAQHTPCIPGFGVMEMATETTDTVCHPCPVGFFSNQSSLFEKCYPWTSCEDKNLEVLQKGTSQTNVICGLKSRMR
The assay can be described thus: SPR. In general terms: In SPR one partner is held on a chip, and binding of the other changes the refractive index at the surface.

A further assay has as its target T3, mouse FAP protein (mouse, UniProt P97321 26-761).
T3 sequence (looked up): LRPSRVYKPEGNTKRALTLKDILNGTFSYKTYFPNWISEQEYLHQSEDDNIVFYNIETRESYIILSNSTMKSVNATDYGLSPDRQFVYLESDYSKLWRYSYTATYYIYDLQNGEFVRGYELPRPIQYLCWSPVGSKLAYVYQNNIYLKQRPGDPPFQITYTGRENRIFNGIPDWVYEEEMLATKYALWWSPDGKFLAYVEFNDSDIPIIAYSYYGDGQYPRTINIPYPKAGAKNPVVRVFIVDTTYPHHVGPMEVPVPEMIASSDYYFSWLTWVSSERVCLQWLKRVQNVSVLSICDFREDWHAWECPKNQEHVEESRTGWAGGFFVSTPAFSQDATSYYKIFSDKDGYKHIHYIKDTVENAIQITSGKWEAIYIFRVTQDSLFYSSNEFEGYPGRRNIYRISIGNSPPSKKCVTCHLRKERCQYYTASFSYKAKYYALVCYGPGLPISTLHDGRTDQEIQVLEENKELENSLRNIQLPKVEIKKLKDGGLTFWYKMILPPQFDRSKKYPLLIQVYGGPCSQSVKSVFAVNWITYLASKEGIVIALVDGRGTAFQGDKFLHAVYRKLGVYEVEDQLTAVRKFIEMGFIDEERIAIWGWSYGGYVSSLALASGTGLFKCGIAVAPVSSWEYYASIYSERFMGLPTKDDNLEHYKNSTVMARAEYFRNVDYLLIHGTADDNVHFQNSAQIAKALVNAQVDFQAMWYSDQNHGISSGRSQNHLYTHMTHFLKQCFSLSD
The assay can be described thus: SPR.

A further assay concerns the target T4, mouse FAP on HEK cells (mouse, UniProt P97321 1-761).
T4 construct: whole, on cells; also called Mouse FAP-positive HEK cells; mouse FAP-expressing HEK cells
T4 sequence (looked up): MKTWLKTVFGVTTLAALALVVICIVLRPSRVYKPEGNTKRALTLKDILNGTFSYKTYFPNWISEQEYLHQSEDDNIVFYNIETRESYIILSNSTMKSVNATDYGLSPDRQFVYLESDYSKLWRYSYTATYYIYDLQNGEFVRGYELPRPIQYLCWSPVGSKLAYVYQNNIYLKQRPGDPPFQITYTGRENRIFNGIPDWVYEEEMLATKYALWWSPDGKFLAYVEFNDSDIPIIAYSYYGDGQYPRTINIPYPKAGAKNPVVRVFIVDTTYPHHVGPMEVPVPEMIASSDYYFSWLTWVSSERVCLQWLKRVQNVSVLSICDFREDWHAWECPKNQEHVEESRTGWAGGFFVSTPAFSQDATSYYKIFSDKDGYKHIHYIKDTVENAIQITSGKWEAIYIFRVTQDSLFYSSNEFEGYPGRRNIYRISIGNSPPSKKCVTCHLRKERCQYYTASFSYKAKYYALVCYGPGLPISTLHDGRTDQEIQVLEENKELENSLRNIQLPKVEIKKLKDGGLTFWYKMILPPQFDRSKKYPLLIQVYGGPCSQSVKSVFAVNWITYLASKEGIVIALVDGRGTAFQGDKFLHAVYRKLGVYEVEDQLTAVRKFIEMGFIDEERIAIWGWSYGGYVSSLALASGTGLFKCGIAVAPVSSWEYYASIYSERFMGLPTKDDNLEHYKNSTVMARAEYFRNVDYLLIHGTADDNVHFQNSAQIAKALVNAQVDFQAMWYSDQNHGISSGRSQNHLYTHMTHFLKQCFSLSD
The assay can be described thus: binding to mouse FAP-positive HEK cells.

The target of assay [3] is T1, mouse CD40 on cells. As to the kind of experiment: cell-based or functional assay.

B1: mCD40×FAP.LP62 (2+1 anti-mouse CD40×FAP bispecific antibody) (bispecific antibody)
chain: EVQLLESGGGLVQPGGSLRLSCAASGFTFSSRGMSWVRQAPGKCLEWVSFISSSGTYVYYADSVKGRFTISRDNSKNTLYLQMNSLRAEDTAVYYCARDLPRTGVYFGMDVWGQGTTVTVSSGGGGSGGGGSGGGGSGGGGSDIQMTQSPSSLSASVGDRVTITCRASQSIFNYLNWYQQKPGKAPKLLIYGASTLQSGVPSRFSGSGSGTDFTLTISSLQPEDFATYYCQESYSTPYTFGCGTKVEIK
As for B1, the results for the concentration for a half-maximal effect (EC50) with mouse CD40 on cells [1], with mouse CD40 on cells [2] and with mouse FAP on HEK cells were 12.1 nM, 7.3 nM and 3.17 nM, respectively. In addition, the Kd with mouse CD40 protein came out at 45.8 nM; with mouse FAP protein it was 3.4 nM. The “CCL22 secretion, murine BMDM + MC38-FAP co-culture, EC50” value with mouse CD40 on cells [3] was determined as 1.02 nM. Besides, the “IL12p40 secretion, murine BMDM + MC38-FAP co-culture, EC50” value with mouse CD40 on cells [3] amounted to 1.43 nM.
